The record followed here is patent WO2015109212A1 (dated 2015).

For experiment [1], the target named is T1, mouse IL-2 (Peprotech #212-12) (mouse, UniProt P04351 21-169).
T1 construct: Bought
T1 sequence (looked up): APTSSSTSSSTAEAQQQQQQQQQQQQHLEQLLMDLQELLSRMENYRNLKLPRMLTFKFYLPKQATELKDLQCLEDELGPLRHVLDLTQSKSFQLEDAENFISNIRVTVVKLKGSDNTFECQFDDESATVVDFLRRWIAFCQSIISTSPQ
Description: told in Example 10; method not named there (SPR in Example 4).

Experiment [2] addresses T2, Human IL-2 (Humanzyme, HumanKine IL-2) (human, UniProt P60568 21-153).
T2 construct: Bought; also called hIL-2
Description: SPR (Biacore T200), antibody captured, human IL-2 injected. (SPR reads the build-up and loss of mass on a sensor chip optically.)

T2 sequence (P60568 21-153 limits assumed): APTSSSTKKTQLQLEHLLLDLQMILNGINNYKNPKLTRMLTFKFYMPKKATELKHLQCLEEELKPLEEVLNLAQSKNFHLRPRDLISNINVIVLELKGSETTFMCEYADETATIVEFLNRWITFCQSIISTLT

B1: 24E7 (antibody, IgG1, V domains shown)
VH: QVQLVQSGAEVKKPGESLKISCKGSGYSFTSYWIGWVRQMPGKGLEWMGIIYPGDSDTRYSPSFQGQVTISADKSISTAYLQWSSLKASDTAMYYCARETLAAVGSNYYYYGMDVWGQGTTVTVSS
VL: SYELTQPPSVSVSPGQTARITCSGDALPRKYAYWYQQKSGQAPVLVIYEDSKRPSGIPERFSGSSSGTMATLTISGAQVEDEADYYCYSTDRSGNFWVFGGGTKVTVL
notes: also called mAb 24E7
For the molecule B1, the binding result in experiment [1] and in experiment [2] was “binds” throughout.

B2: 16B2 (antibody, IgG1, V domains shown)
VH: QVQLVQSGAEVKKPGASVKVSCKASGYTFTSYGISWVRQAPGQGLEWMGWISAYNGNTNYAQKLQGRVTMTTDTSTSTAYMELRSLRSDDTAVYYCAREGAIYYDSSGYYFPFDYWGQGTLVTVSS
VL: SYELTQPPSVSVSPGQTARITCSGDALPRKFAYWYQQKSGQAPVMVIYGDSKRPPGIPERFSGSSSGTMATLTITGAQVEDEADYYCYSTDSGGDVSVFGGGTKLTVL
notes: also called mAb 16B2
Consider B2, for which the binding result in experiment [1] and in experiment [2] was “binds” each time.
